In patent publication US20220372155A1 (LYVGEN BIOPHARMA, published 2022):

B1: TM377 (antibody, human IgG4 S228P, kappa, V domains shown)
VH: EVQILETGGGLVKPGGSLRLSCATSGFNFNDSFMNWVRQAPGKGLEWVAQIRNKNYNYATYYTESLEGRVTISRDDSKSRVYLQVSSLRAEDSAVYYCTSYYYDGFADYFDYWGQGVMVTVSS
VL: DIKMTQSPSFLSASVGDSVTFTCKASQNIYIYLNWYQQKFGEAPKLLIYNTNNLQTGIPSRFSGSESGTVFTLTISSLQPEDVATYFCLQHSSRRTFGGGTKLELKR
notes: chimeric: LYV377 VH/human IgG4, LYV377 VL/kappa; also called chimeric parent TM377
B2: Ly462 (bispecific antibody, human IgG1, kappa)
heavy: QVQLKESGPGLVAPSQSLSITCTVSGFSLTDYGVRWIRQPPGKGLEWLGVIWGGGSTYYNSALKSRLSISKDNSKSQVFLKMNSLQTDDTAMYYCAKEKRRGYYYAMDYWGQGTSVTVSSASTKGPSVFPLAPSSKSTSGGTAALGCLVKDYFPEPVTVSWNSGALTSGVHTFPAVLQSSGLYSLSSVVTVPSSSLGTQTYICNVNHKPSNTKVDKKVEPKSCDKTHTCPPCPAPELLGPSVFLFPPKPKDTLMISRTPEVTCVVVDVSHEDPEVKFNWYVDGVEVHNAKTKPREEQYNSTYRVVSVLTVLHQDWLNGKEYKCKVSNKALPAPIEKTISKAKGQPREPQVYTLPPSREEMTKNQVSLTCLVKGFYPSDIAVEWESNGQPENNYKTTPPVLDSDGSFFLYSKLTVDKSRWQQGNVFSCSVMHEALHNHYTQKSLSLSPGGGGGSGGGGSGGGGSGGGGSDIQMTQSPSSLSASVGDRVTITCKASQNIYIYLNWYQQKPGKAPKLLIYNTNNLQTGVPSRFSGSGSGTDFTLTISSLQPEDFATYYCLQHSSRRTFGGGTKVEIKGGGGSGGGGSGGGGSGGGGSQVQLVESGGGLVQPGGSLKLSCATSGFNFNDYFMNWVRQASGKGLEWVGQIRNKNYNYATYYTESLEGRVTISRDDSKNTAYLQMNSLKTEDTAVYYCTSYYYDGFADYFDYWGQGTTVTVSS
light: ENVLTQSPAIMSASPGEKVTMTCRASSSVSSSYLHWYQQKSGASPKLWIYSTSNLASGVPARFSGSGSGTSYSLTISSVEAEDAATYYCQQYSGYPLTFGGGTKLEIKRTVAAPSVFIFPPSDEQLKSGTASVVCLLNNFYPREAKVQWKVDNALQSGNSQESVTEQDSKDSTYSLSSTLTLSKADYEKHKVYACEVTHQGLSSPVTKSFNRGEC
notes: Ly368 HC-TM740 scFv VL-VH + Ly368 LC
B3: Ly467 (bispecific antibody, human IgG1, kappa)
heavy: QVQLKESGPGLVAPSQSLSITCTVSGFSLTDYGVRWIRQPPGKGLEWLGVIWGGGSTYYNSALKSRLSISKDNSKSQVFLKMNSLQTDDTAMYYCAKEKRRGYYYAMDYWGQGTSVTVSSASTKGPSVFPLAPSSKSTSGGTAALGCLVKDYFPEPVTVSWNSGALTSGVHTFPAVLQSSGLYSLSSVVTVPSSSLGTQTYICNVNHKPSNTKVDKKVEPKSCDKTHTCPPCPAPELLGPSVFLFPPKPKDTLMISRTPEVTCVVVDVSHEDPEVKFNWYVDGVEVHNAKTKPREEQYNSTYRVVSVLTVLHQDWLNGKEYKCKVSNKALPAPIEKTISKAKGQPREPQVYTLPPSREEMTKNQVSLTCLVKGFYPSDIAVEWESNGQPENNYKTTPPVLDSDGSFFLYSKLTVDKSRWQQGNVFSCSVMHEALHNHYTQKSLSLSPGGGGGSGGGGSGGGGSGGGGSEVQLVESGGGLVQPGGSLRLSCAASGFTFTNYGLHWVRQAPGKGLEWVSSISPSGGVTYYRDSVKGRFTISRDNSKNTLYLQMNSLRAEDTAVYYCAKPFLGWGGANWIAHWGQGTLVTVSSGGGGSGGGGSGGGGSGGGGSDIQMTQSPSSLSASVGDRVTITCLASEDISNDLAWYQQKPGKAPKLLIYFVDRLLDGVPSRFSGSGSGTDFTLTISSLQPEDFATYYCQQSYKYPPTFGQGTKLEIK
light: B2 light
notes: Ly368 HC-TM559 scFv VH-VL + Ly368 LC
B4: Ly466 (bispecific antibody, human IgG1, kappa)
heavy: QVQLKESGPGLVAPSQSLSITCTVSGFSLTDYGVRWIRQPPGKGLEWLGVIWGGGSTYYNSALKSRLSISKDNSKSQVFLKMNSLQTDDTAMYYCAKEKRRGYYYAMDYWGQGTSVTVSSASTKGPSVFPLAPSSKSTSGGTAALGCLVKDYFPEPVTVSWNSGALTSGVHTFPAVLQSSGLYSLSSVVTVPSSSLGTQTYICNVNHKPSNTKVDKKVEPKSCDKTHTCPPCPAPELLGPSVFLFPPKPKDTLMISRTPEVTCVVVDVSHEDPEVKFNWYVDGVEVHNAKTKPREEQYNSTYRVVSVLTVLHQDWLNGKEYKCKVSNKALPAPIEKTISKAKGQPREPQVYTLPPSREEMTKNQVSLTCLVKGFYPSDIAVEWESNGQPENNYKTTPPVLDSDGSFFLYSKLTVDKSRWQQGNVFSCSVMHEALHNHYTQKSLSLSPGGGGGSGGGGSGGGGSGGGGSDIQMTQSPSSLSASVGDRVTITCLASEDISNDLAWYQQKPGKAPKLLIYFVDRLLDGVPSRFSGSGSGTDFTLTISSLQPEDFATYYCQQSYKYPPTFGQGTKLEIKGGGGSGGGGSGGGGSGGGGSEVQLVESGGGLVQPGGSLRLSCAASGFTFTNYGLHWVRQAPGKGLEWVSSISPSGGVTYYRDSVKGRFTISRDNSKNTLYLQMNSLRAEDTAVYYCAKPFLGWGGANWIAHWGQGTLVTVSS
light: B2 light
notes: Ly368 HC-TM559 scFv VL-VH + Ly368 LC
B5: Ly463 (bispecific antibody, human IgG1, kappa)
heavy: QVQLKESGPGLVAPSQSLSITCTVSGFSLTDYGVRWIRQPPGKGLEWLGVIWGGGSTYYNSALKSRLSISKDNSKSQVFLKMNSLQTDDTAMYYCAKEKRRGYYYAMDYWGQGTSVTVSSASTKGPSVFPLAPSSKSTSGGTAALGCLVKDYFPEPVTVSWNSGALTSGVHTFPAVLQSSGLYSLSSVVTVPSSSLGTQTYICNVNHKPSNTKVDKKVEPKSCDKTHTCPPCPAPELLGPSVFLFPPKPKDTLMISRTPEVTCVVVDVSHEDPEVKFNWYVDGVEVHNAKTKPREEQYNSTYRVVSVLTVLHQDWLNGKEYKCKVSNKALPAPIEKTISKAKGQPREPQVYTLPPSREEMTKNQVSLTCLVKGFYPSDIAVEWESNGQPENNYKTTPPVLDSDGSFFLYSKLTVDKSRWQQGNVFSCSVMHEALHNHYTQKSLSLSPGGGGGSGGGGSGGGGSGGGGSQVQLVESGGGLVQPGGSLKLSCATSGFNFNDYFMNWVRQASGKGLEWVGQIRNKNYNYATYYTESLEGRVTISRDDSKNTAYLQMNSLKTEDTAVYYCTSYYYDGFADYFDYWGQGTTVTVSSGGGGSGGGGSGGGGSGGGGSDIQMTQSPSSLSASVGDRVTITCKASQNIYIYLNWYQQKPGKAPKLLIYNTNNLQTGVPSRFSGSGSGTDFTLTISSLQPEDFATYYCLQHSSRRTFGGGTKVEIK
light: B2 light
notes: Ly368 HC-TM740 scFv VH-VL + Ly368 LC
B6: Ly464 (bispecific antibody, human IgG1, kappa)
heavy: QVQLKESGPGLVAPSQSLSITCTVSGFSLTDYGVRWIRQPPGKGLEWLGVIWGGGSTYYNSALKSRLSISKDNSKSQVFLKMNSLQTDDTAMYYCAKEKRRGYYYAMDYWGQGTSVTVSSASTKGPSVFPLAPSSKSTSGGTAALGCLVKDYFPEPVTVSWNSGALTSGVHTFPAVLQSSGLYSLSSVVTVPSSSLGTQTYICNVNHKPSNTKVDKKVEPKSCDKTHTCPPCPAPELLGPSVFLFPPKPKDTLMISRTPEVTCVVVDVSHEDPEVKFNWYVDGVEVHNAKTKPREEQYNSTYRVVSVLTVLHQDWLNGKEYKCKVSNKALPAPIEKTISKAKGQPREPQVYTLPPSREEMTKNQVSLTCLVKGFYPSDIAVEWESNGQPENNYKTTPPVLDSDGSFFLYSKLTVDKSRWQQGNVFSCSVMHEALHNHYTQKSLSLSPG
light: ENVLTQSPAIMSASPGEKVTMTCRASSSVSSSYLHWYQQKSGASPKLWIYSTSNLASGVPARFSGSGSGTSYSLTISSVEAEDAATYYCQQYSGYPLTFGGGTKLEIKRTVAAPSVFIFPPSDEQLKSGTASVVCLLNNFYPREAKVQWKVDNALQSGNSQESVTEQDSKDSTYSLSSTLTLSKADYEKHKVYACEVTHQGLSSPVTKSFNRGECGGGGSGGGGSGGGGSGGGGSDIQMTQSPSSLSASVGDRVTITCKASQNIYIYLNWYQQKPGKAPKLLIYNTNNLQTGVPSRFSGSGSGTDFTLTISSLQPEDFATYYCLQHSSRRTFGGGTKVEIKGGGGSGGGGSGGGGSGGGGSQVQLVESGGGLVQPGGSLKLSCATSGFNFNDYFMNWVRQASGKGLEWVGQIRNKNYNYATYYTESLEGRVTISRDDSKNTAYLQMNSLKTEDTAVYYCTSYYYDGFADYFDYWGQGTTVTVSS
notes: Ly368 HC + Ly368 LC-TM740 scFv VL-VH
B7: Ly468 (bispecific antibody, human IgG1, kappa)
heavy: B6 heavy
light: ENVLTQSPAIMSASPGEKVTMTCRASSSVSSSYLHWYQQKSGASPKLWIYSTSNLASGVPARFSGSGSGTSYSLTISSVEAEDAATYYCQQYSGYPLTFGGGTKLEIKRTVAAPSVFIFPPSDEQLKSGTASVVCLLNNFYPREAKVQWKVDNALQSGNSQESVTEQDSKDSTYSLSSTLTLSKADYEKHKVYACEVTHQGLSSPVTKSFNRGECGGGGSGGGGSGGGGSGGGGSDIQMTQSPSSLSASVGDRVTITCLASEDISNDLAWYQQKPGKAPKLLIYFVDRLLDGVPSRFSGSGSGTDFTLTISSLQPEDFATYYCQQSYKYPPTFGQGTKLEIKGGGGSGGGGSGGGGSGGGGSEVQLVESGGGLVQPGGSLRLSCAASGFTFTNYGLHWVRQAPGKGLEWVSSISPSGGVTYYRDSVKGRFTISRDNSKNTLYLQMNSLRAEDTAVYYCAKPFLGWGGANWIAHWGQGTLVTVSS
notes: Ly368 HC + Ly368 LC-TM559 scFv VL-VH
B8: Ly465 (bispecific antibody, human IgG1, kappa)
heavy: B6 heavy
light: ENVLTQSPAIMSASPGEKVTMTCRASSSVSSSYLHWYQQKSGASPKLWIYSTSNLASGVPARFSGSGSGTSYSLTISSVEAEDAATYYCQQYSGYPLTFGGGTKLEIKRTVAAPSVFIFPPSDEQLKSGTASVVCLLNNFYPREAKVQWKVDNALQSGNSQESVTEQDSKDSTYSLSSTLTLSKADYEKHKVYACEVTHQGLSSPVTKSFNRGECGGGGSGGGGSGGGGSGGGGSQVQLVESGGGLVQPGGSLKLSCATSGFNFNDYFMNWVRQASGKGLEWVGQIRNKNYNYATYYTESLEGRVTISRDDSKNTAYLQMNSLKTEDTAVYYCTSYYYDGFADYFDYWGQGTTVTVSSGGGGSGGGGSGGGGSGGGGSDIQMTQSPSSLSASVGDRVTITCKASQNIYIYLNWYQQKPGKAPKLLIYNTNNLQTGVPSRFSGSGSGTDFTLTISSLQPEDFATYYCLQHSSRRTFGGGTKVEIK
notes: Ly368 HC + Ly368 LC-TM740 scFv VH-VL

target: T1, human CD40 expressed on CHO cells (human, UniProt P25942 21-277); experiment: FACS, CHO cells
T1 construct: whole, on cells; also used for the reporter cells over-expressing human CD40; also called cellular CD40; CHO-CD40 cells
T1 sequence (P25942 21-277): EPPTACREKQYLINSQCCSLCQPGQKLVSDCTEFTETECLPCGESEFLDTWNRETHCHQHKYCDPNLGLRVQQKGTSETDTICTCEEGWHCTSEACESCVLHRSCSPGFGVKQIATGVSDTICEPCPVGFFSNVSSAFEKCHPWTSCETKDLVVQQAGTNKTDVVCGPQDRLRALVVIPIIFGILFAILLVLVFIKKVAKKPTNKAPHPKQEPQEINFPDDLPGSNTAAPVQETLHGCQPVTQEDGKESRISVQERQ

binding result	Binder
binds	B1
binds	B2
binds	B3
binds	B4
binds	B5
binds	B6
binds	B7
binds	B8
